These results are taken from patent publication US20170335004A1 (LA TROBE UNIVERSITY, published 2017).

In one experiment the target is T1, BSA (bovine, UniProt P02769).
T1 construct: also called bovine serum albumin
Briefly: ELISA of purified hFab 6.5 on a panel of coated antigens, absorbance 450 nm.

Experiment [1] concerns the target T2, hFn14-Fc (Fc-tagged ectodomain of human Fn14) (human, UniProt Q9NP84 29-78).
T2 construct: also called Fc-tagged hFn14; not shown: Fc tag
Kind of experiment: SPR (ProteOn XPR36), hFab amine-coupled, hFn14-Fc as analyte, Langmuir fit, average of 5 measurements. Here is the method: The affinity of wildtype Fab clone 6.5 and the light chain shuffled mutants was measured by surface Plasmon resonance (SPR) using the ProteOn XPR36TM instrument (BioRad). Individual channels of a six channel GLC chip were coupled with the relevant hFab ligand at 5 μg/ml in 0.1M sodium acetate buffer pH 4.5 using amine coupling according to the manufacturer's instructions. Five dilutions of analyte hFn14-Fc were prepared in PBS containing 0.005% Tween20 (running buffer) and allowed to flow over the coupled hFab at […] flow rate for 500 seconds to evaluate the “on rate” (ka). This was followed by flow with the running buffer for 1200 seconds to evaluate the “off rate” (kd). This process was repeated until the analyte dilution series allowed a good kinetic fit using the Langmuir statistical model for analysing the ka and kd, where the affinity constant (KD) is the kd/ka. The best fit data was analysed using the ProteOn software measured by Chi2, where the lowest value is the best fit of the model to the SPR binding curves.

T2 sequence (Q9NP84 29-78): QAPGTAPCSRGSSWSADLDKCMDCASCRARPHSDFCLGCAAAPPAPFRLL
T1 sequence (P02769 25-607 limits assumed): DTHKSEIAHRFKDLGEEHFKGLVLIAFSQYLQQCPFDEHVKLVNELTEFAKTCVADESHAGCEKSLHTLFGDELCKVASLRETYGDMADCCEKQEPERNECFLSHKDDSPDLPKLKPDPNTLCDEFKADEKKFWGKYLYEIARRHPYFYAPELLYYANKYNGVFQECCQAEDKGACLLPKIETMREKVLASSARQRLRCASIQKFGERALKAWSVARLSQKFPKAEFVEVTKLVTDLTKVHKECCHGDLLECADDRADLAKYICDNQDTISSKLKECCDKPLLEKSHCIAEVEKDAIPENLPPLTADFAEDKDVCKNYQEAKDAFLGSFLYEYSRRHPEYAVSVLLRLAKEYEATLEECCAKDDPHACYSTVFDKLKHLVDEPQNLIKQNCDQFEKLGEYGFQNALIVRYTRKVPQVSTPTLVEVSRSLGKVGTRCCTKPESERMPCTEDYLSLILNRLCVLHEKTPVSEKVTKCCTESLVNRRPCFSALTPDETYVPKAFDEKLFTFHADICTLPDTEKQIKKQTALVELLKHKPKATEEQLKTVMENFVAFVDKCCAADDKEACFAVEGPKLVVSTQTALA

B1: hFab 6.5 (Fab, V domains shown)
VH: QVQLVQSGGGLVKPGGSLRLSCAASGFTFTSYAMSWVRQAPGKGLEWVSAISGSGGSTYYADSVKGRFTISRDNPKNTLYLQMNSLRAEDTAVYYCARVRANYYYGMDVWGQGTLVTVSS
VL: LTQSPGTLSLSPGERATLSCRASQSVSSSTLAWYQQKPGQTPRLLIYGASTRATGIPARFSGSGSGTDFTLTISRLEPEDFAVYYCQQYGSSRLTFGGGTKVEIKR
notes: Human Fab from a phage display library, kappa light chain, expressed in the E. coli periplasm; also called clone 6.5; wildtype Fab 6.5
Take B1: in the experiment with BSA, the binding result is “no binding (tested: 10 ug/ml)”. Further, in experiment [1], the Kd is 22.1 nM, the koff was found to be 0.00207 s⁻¹ and the kon stood at 94000 M⁻¹ s⁻¹.
